Laboratory results taken from the supplement of paper PMC9170038.

Each sequence was assayed on K4 kissing-loop RNA reporter (assay: apparent KD of K4 kissing-loop reporter; higher = weaker reporter binding). Conditions: Eterna round: R107; input ligand: tryptophan 2.4 mM.
Method: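 RNA-MaP round R107: designed RNA switches with theophylline, tryptophan, arginine or FMN aptamers are transcribed on-chip within common flanks. They are titrated with a labelled K4 kissing-loop RNA reporter in RNA-MaP buffer (100 mM Tris pH 7.5, 80 mM KCl, 4 mM MgCl2), without ligand or with the indicated ligand. Median apparent KD per design.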
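Further: bound reporter read as fluorescence of individual clusters on recovered sequencing chips by microscopy, with normalized cluster intensities fitted with a binding model.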

Going from “AUGUUGAGCGGAAGGAGCGGCUGAACCAGUGAUGUUGGUUAAUCCAAGUGAUGUUGGAAAAGCCAGGUAGGUCGCCGCUUUAUGU [Same State Arg B GF 2]” to “GCCGUAGAUUGAAGGAGCGCCGCGCAUGUCCCGCUUAGUGUAGUGAUGUUACAGUUUCAGCGGCAGGUAGGUCGCAAUCUACGGC”, the “apparent KD of K4 kissing-loop reporter” value falls from 722 nM to 69.5 nM (10-fold).

First: GGAGGGAUCUCGGCCGCCACUCGUGGGAAAUGGGCCUCAGGGAUAUAGUGAUGUUAUGUAAAGAAGAGGACCGGGAGAAGGAAGG [ExTryptoB.Dg]
Second: UGGUUUAGAAGUGAUGUUUCGAUAAGUGAUACCAGACAAAAGAAAGUCCCUUGGCAGCACAAUGAUGCCAAGGAAACGGCAUGAU [Same State Theophylline A GF 1]
The “apparent KD of K4 kissing-loop reporter” value of the first is 2.4-fold higher: 240 nM for the first, 98.9 nM for the second.

Compared with “GCCGUACGCAUGGAUACCAGCAUGCAUAUUAGCUAGUGAUGUUAGCGCUAUGCGAUGCUAUGCCCUUGGCAGCCAUGCGUACGGC”, “AGACUACCACACUGUCAAUAGACAGUGAGGUAGGAUAUGCUGAAAAGCAGAAGGACCAGUGAUGUUGGUAGGUAGUCAAAAUAAA [FmnAX 11 #SwitchBubble #StaticStem #K4Early]” is 1.8-fold lower in “apparent KD of K4 kissing-loop reporter” value: 132 nM for the first, 74.9 nM for the second.

“GCAGUGAUGUUGCGCGGGUACGGUAGAGUGCGAGGACCGGUACGGCCGCCACUCGUACGGAACUGGCUAAUAUAUGGAUAGGUGA [V]” and “UGUGUUGUUUUGAUGUUUGGUGUUUGUUGGCAGGAUAUCGUAGAGGCGAGAAGGGCUUGGGAGCGGUAUGAGUGAUGUUUGUAGG [deedwrmullin]” are within 1.5-fold of each other in “apparent KD of K4 kissing-loop reporter” value: 243 nM for the first, 245 nM for the second.

“UUGCGUCUCUGAGGAUAUCAGAACAGAGUGAUGUUCUGUCAACGCCCAGUGAUGUUGGAUGCGAUCUGAGAAGGCAGUGGGCGCG [Same State FMN B GF 10]” and “GUAUCGCUAGGAGGAUAUUCCAUUUUACAUAGAAAUGGCUAUGCGAAGUGAUGUUUCGAUUUACGGGAAGAAGGCCUAGUGAUAC [FMN B 22]” are within 1.5-fold of each other in “apparent KD of K4 kissing-loop reporter” value: 184 nM for the first, 155 nM for the second.

Compared with “UGUACCGAGUGAGGAUAUGUCGUCGAAAGACGAAAUGGAGUGAUGUUCCUUAAACUGCGAAAGCAGACAGAAGGUACUUGGUACU [FmnBS 29 G11+U75]”, “GCAGUGAUGUUGCAAAAUGUCUGUGGUAGUCGAGGACCGGUACGGCCGCCACUCGGUGAGAACCUGCUAAUACAUCGAUAAGUGA [IX]” is 2.4-fold higher in “apparent KD of K4 kissing-loop reporter” value: 275 nM for the first, 666 nM for the second.

“UACAAACGUAGUGAUGUUACGUACUCUGAUACCAGACAACUCUAAGUCCCUUGGCAGCAGUCACUUAGCUUAUUAUUUUCUCAAA [JR_Nu_ExcTheophyA_Sub026]” and “AUAUCUGAUAGCAGUGAUGUUGCUUCAGAUACCAGACGAGAUCAUGUCCCUUGGCAGCUGACACGGCACGUGCUAGGUUAGAUGA [Theo A Ex t2]” are within 1.5-fold of each other in “apparent KD of K4 kissing-loop reporter” value: 103 nM for the first, 101 nM for the second.

Going from “GAUGAUCGCGCGGCCGCCACUGGUCAGUGAUGUUGACAUUAAUGCGCCGAGUAGUAACGGCGCAACAGGACCGGGCGCGAUGUAG [#11 K4 Tryptophan B Same State]” to “AGAAAAGGGACGAUCGUCGAGUUGCCAGAAGGAGCGGUAAUUUUACCAGGUAGGUCGCUGGCCCAGUGAUGUUGGGCUUUUAAGA [Biisinaor]”, the “apparent KD of K4 kissing-loop reporter” value falls from 171 nM to 92.4 nM (1.9-fold).

First: AAAGUUGAAAGUGAUACCAGACGAGUGAAGGGAAGUAAUUAAUUUGGAGUGAUGUUCCGCGUCCCUUGGCAGCAUUUUGUAAUUU [Exclusion Theophylline B GF 24]
Second: GUUACGCAUGGAAGGAGCGCGAAUUUAAUUAGUGAGUGAUGUUCACAUAAAAUAUAUAAUACGCAGGUAGGUCGCCAUGUGUAAC [Ex Arginine B K4 1]
The “apparent KD of K4 kissing-loop reporter” value of the first is 2-fold higher: 153 nM for the first, 75 nM for the second.

Going from “GACAACAGGGUGAGACUCACGGCGCCAGAAGGAGCGGUGAUUCCACCAGGUAGGUCGCUGGCCCAGUGAUGUUGGGCUUUGUGUC [Onoran]” to “CACCAUGAAUUCUCUAGGAGUGAUGUUUUUCGAGGACCGGUACGGCCGCCACUCGGACGAGGACCGUGGGAGCGGCGAAAAGACU [ghgmullin]”, the “apparent KD of K4 kissing-loop reporter” value rises from 123 nM to 309 nM (2.5-fold).

Going from “UUUAACGAGUGAUGUUCGUAAAGUAAUAGUUAGGAUAUCGUUUUUUCGAGAAGGAACUUCGAAGUGAUACGAAAGUAUCGCUUCG [FMN A 8]” to “UGACUGGACUGAAGGAGCGGGCGAGACAAAGUCUCGAACUCGUAGUGAUGUUAUGAAAUAACCCAGGUAGGUCGCAGUCUAGUCU”, the “apparent KD of K4 kissing-loop reporter” value rises from 152 nM to 789 nM (5.2-fold).

“AAAAUAAACCAGUGAUGUUGGUAUCCAGAUACCAGCGACGAAAGUCGCCCUUGGCAGCUGUGGACGUACAAAAUAAGUACGUCCU” and “UAACGCUGACAGCAACAAUUCGGGCCUGAUACCAGCAAUUUUUCAUGCCCUUGGCAGCAGAGUGAUGUUUUCUGUCUAUUUAGUC [theeternabot_exclusion_KL_Theo_A_23]” are within 1.5-fold of each other in “apparent KD of K4 kissing-loop reporter” value: 714 nM for the first, 520 nM for the second.

“CGCCGCAAGGCGGGCCGGCCCACUCCGGAAGGAGCGCCCGCAAGGGCAGGUAGGUCGCCGGAGUGAUGUUCCGGUGGCCGGCCCG [#2 Exclusion - Arginine A Attempt #3 (Inspired by Omei)]” and “AGCAGUGAUGUUGCAUUUAAAAUGACCGAUACCAGUAUCGAUAGAUACCCUUGGCAGCGGAUUUCCGCAACGACUAGGAAACUAG [Ex Theophylline A K4 15]” are within 1.5-fold of each other in “apparent KD of K4 kissing-loop reporter” value: 354 nM for the first, 327 nM for the second.

For “CACGUUUACCAAGGAUAUGGUCUGCCGCGGAACCGUUCAAGUGAUGUUUGAUUCGAGUAUUAAUCUCCAGAAGGUGGUAGUACAG [theeternabot_exclusion_KL_FMN_B_6]”, the “apparent KD of K4 kissing-loop reporter” value was 342 nM.
